Test results taken from publication PMC2377106 (2003).
Values belong to the binder of their own block, whether it stands above or below them.

How the values were obtained:
[1] = target: T1, VEGFR2(ΔKD)m -20-809 (Homo sapiens, UniProt P35968); assay: ELISA
T1 chain: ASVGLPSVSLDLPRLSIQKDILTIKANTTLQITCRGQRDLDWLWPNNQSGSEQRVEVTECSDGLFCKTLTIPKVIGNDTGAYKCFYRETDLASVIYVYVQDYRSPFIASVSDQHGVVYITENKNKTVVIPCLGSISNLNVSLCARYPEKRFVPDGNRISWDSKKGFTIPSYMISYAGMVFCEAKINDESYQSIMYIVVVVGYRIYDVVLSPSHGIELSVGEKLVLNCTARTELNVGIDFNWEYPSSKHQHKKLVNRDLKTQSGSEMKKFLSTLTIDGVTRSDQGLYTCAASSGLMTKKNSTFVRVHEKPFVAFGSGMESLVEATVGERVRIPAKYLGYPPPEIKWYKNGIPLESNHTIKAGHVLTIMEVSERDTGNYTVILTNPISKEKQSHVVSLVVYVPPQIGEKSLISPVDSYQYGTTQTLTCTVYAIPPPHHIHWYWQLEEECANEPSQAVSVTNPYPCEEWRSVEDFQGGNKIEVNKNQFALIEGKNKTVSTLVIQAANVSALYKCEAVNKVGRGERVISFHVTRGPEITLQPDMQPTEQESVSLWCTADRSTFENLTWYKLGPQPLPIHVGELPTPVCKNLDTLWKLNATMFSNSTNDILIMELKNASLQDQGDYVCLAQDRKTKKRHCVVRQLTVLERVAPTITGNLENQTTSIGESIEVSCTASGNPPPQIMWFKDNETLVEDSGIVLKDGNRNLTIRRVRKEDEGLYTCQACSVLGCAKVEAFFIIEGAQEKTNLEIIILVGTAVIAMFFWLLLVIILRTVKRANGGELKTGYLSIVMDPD

[2] = target: T1, VEGFR2(ΔKD)m -20-809; assay: competition RIA
[3] = target: T1, VEGFR2(ΔKD)m -20-809; assay: solid-phase radioligand binding

B2: [125I]VEGF (protein)
chain: MTDRQTDTAPSPSYHLLPGRRRTVDAAASRGQGPEPAPGGGVEGVGARGVALKLFVQLLGCSRFGGAVVRAGEAEPSGAARSASSGREEPQPEEGEEEEEKEEERGPQWRLGARKPGSWTGEAAVCADSAPAARAPQALARASGRGGRVARRGAEESGPPHSPSRRGSASRAGPGRASETMNFLLSWVHWSLALLLYLHHAKWSQAAPMAEGGGQNHHEVVKFMDVYQRSYCHPIETLVDIFQEYPDEIEYIFKPSCVPLMRCGGCCNDEGLECVPTEESNITMQIMRIKPHQGQHIGEMSFLQHNKCECRPKKDRARQEKKSVRGKGKGQKRKRKKSRYKSWSVPCGPCSERRKHLFVQDPQTCKCSCKNTDSRCKARQLELNERTCRCDKPRR
modifications: 125I-labelled VEGF
Kd [3]: 0.51 nM

B4: VEGF161-CPG2(Q)3-H6 1-161 (protein)
chain: MTDRQTDTAPSPSYHLLPGRRRTVDAAASRGQGPEPAPGGGVEGVGARGVALKLFVQLLGCSRFGGAVVRAGEAEPSGAARSASSGREEPQPEEGEEEEEKEEERGPQWRLGARKPGSWTGEAAVCADSAPAARAPQALARASGRGGRVARRGAEESGPPH
modifications: fusion to N-terminus of CPG2(Q)3 (aa 23-415), H6 tag
Kd [1]: 1.06 nM | Kd [2]: 3.3 nM

More lines, now with the values ahead:

Kd [1]: 0.75 nM | Kd [2]: 1.3 nM
B1: CPG2(Q)3-VEGF109-H6 1-109 (protein)
chain: MTDRQTDTAPSPSYHLLPGRRRTVDAAASRGQGPEPAPGGGVEGVGARGVALKLFVQLLGCSRFGGAVVRAGEAEPSGAARSASSGREEPQPEEGEEEEEKEEERGPQW
modifications: fusion to C-terminus of CPG2(Q)3 (aa 23-415), H6 tag

Kd [1]: 0.51 nM | Kd [2]: 9.6 nM
B3: VEGF115-CPG2(Q)3-H6 1-115 (protein)
chain: MTDRQTDTAPSPSYHLLPGRRRTVDAAASRGQGPEPAPGGGVEGVGARGVALKLFVQLLGCSRFGGAVVRAGEAEPSGAARSASSGREEPQPEEGEEEEEKEEERGPQWRLGARK
modifications: fusion to N-terminus of CPG2(Q)3 (aa 23-415), H6 tag
